Measured values published in patent publication US20140256614.

System: MK2-activating peptide (transduction domain YARAAARQARA coupled to a Kaposin-derived region)

Substance: MK2 (endogenous, in rat pulmonary endothelial cells, RPMEC)
- HSP27 phosphorylation in RPMEC after MK2 siRNA knock-down against control siRNA: MK2 siRNA reduced the level of MK2 in the cells and blocked the activity of the MK2-activating peptide
- phosphorylated HSP27 by immunoblot, time course at 50 µM peptide, RPMEC: significant MK2 activation was observed by 15 minutes of treatment
